The text below walks through data of patent US20030161832A1 (CORNELL RESEARCH FOUNDATION, published 2003).

Where a chain is given by its changes, count along the chain named.

Assay [1] concerns the target T1, prostate specific membrane antigen (PSMA), human (human, UniProt Q04609 1-750).
T1 construct: whole, on cells; The target was native PSMA on LNCaP cells, in LNCaP membrane preparations (ELISA) or in frozen tissue sections (immunohistochemistry); also called human PSMA
The assay is described as follows: ELISA on LNCaP membrane preparation. A general note: ELISA stands for enzyme-linked immunosorbent assay.

In assay [2] the target is T1, prostate specific membrane antigen …. The assay is described as follows: ELISA on LNCaP membrane preparation, purified antibody.
Assay [3] has the same target. In words: stated, method not described.

T1 sequence (Q04609 whole entry): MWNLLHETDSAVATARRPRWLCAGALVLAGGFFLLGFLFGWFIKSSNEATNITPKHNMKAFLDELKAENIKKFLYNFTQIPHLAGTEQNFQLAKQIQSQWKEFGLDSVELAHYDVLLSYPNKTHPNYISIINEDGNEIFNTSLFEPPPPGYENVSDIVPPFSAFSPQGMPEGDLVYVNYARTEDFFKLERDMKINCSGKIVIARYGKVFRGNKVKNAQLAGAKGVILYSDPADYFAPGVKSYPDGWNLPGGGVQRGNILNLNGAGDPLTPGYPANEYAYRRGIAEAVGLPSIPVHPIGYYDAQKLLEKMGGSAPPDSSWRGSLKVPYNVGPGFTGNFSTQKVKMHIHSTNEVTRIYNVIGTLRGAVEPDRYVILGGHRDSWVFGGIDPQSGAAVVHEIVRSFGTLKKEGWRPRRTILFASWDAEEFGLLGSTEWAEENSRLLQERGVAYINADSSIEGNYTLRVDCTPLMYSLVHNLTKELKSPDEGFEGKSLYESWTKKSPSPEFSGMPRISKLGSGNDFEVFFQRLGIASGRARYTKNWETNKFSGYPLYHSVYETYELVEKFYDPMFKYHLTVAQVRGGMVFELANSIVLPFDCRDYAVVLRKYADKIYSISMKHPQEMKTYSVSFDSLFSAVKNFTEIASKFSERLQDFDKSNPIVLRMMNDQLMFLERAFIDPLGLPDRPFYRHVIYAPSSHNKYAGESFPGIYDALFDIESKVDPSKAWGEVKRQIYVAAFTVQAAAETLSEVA

B1: deimmunized J415 antibody composed of heavy chain version 4 (J415DIVH4) and light chain version 5 (J415DIVK5) (antibody, V domains shown)
VH: EVKLEESGGGLVQPGGSMKISCVASGFTFSNYWMNWVRQSPEKGLEWVAEIRSQSNNFATHYAESVKGRVIISRDDSKSSVYLQMNSLRAEDTAVYYCTRRWNNFWGQGTTVTVSS
VL: NIVMTQFPKSMSASAGERMTLTCKASENVGTYVSWYQQKPTQSPKMLIYGASNRFTGVPDRFSGSGSGTDFILTISSVQAEDLVDYYCGQSYTFPYTFGGGTKLEMK
notes: also called DIVH4/DIVK5; deJ415
As for B1, the binding result in assay [1] is listed as “binds”.

B2: deimmunized J415 antibody composed of heavy chain version 1 (J415DIVH1) and light chain version 5 (J415DIVK5) (antibody, V domains shown)
VH: B1 VH with V23K, S40T, E50L
VL: B1 VL
notes: also called DIVK5 combined with heavy chain version 1; J415DIVH1 + J415DIVK5
With B2, in assay [2], the “fold less binding than the chimeric J415 antibody” value came out at 2 fold.

B3: murine monoclonal antibody J415 (hybridoma ATCC HB-12109) (antibody, mouse IgG1, V domains shown)
VH: B1 VH with I20L, S87N, A94G, V95I, V112L
VL: B1 VL with A13I, A15V, M19V, T41E, S63T, G68A, A80T
notes: also called murine J415
For B3, the binding result in assay [3] is recorded as “binds”.

B4: deimmunized J415 antibody composed of heavy chain version 2 (J415DIVH2) and light chain version 5 (J415DIVK5) (antibody, V domains shown)
VH: B1 VH with S40T, E50L
VL: B1 VL
notes: also called DIVK5 combined with heavy chain version 2; J415DIVH2 + J415DIVK5
Regarding B4, in assay [2], the “fold less binding than the chimeric J415 antibody” value amounted to 2 fold.

B5: J415 chimeric antibody (murine variable heavy and light chain regions fused to human constant heavy and light chain regions) (antibody, V domains shown)
VH: B1 VH with I20L, S87N, A94G, V95I, V112L
VL: B1 VL with A13I, A15V, M19V, T41E, S63T, G68A, A80T
notes: also called the chimeric
Consider B5, for which the binding result in assay [1] was “binds”.

B6: murine monoclonal antibody J533 (hybridoma ATCC HB-12127) (antibody, mouse IgG1, V domains shown)
VH: EVQLQQSGPELVKPGASVKMSCKASGYTFTGYVMHWVKQKPGQVLEWIGYINPYNDVTRYNGKFKGKATLTSDKYSSTAYMELSGLTSEDSAVYYCARGENWYYFDSWGRGATLTVSS
VL: DIVLTQSPASLAVSLGQRATISCRASESIDSYDNTFMHWYQQKPGQPPNLLIFRASILESGIPARFSGSGSGTDFTLTIYPVEADDVATYYCHQSIEDPYTFGGGTKLEIK
notes: also called murine J533
With B6, in assay [3], the binding result is “binds”.

B7: murine monoclonal antibody E99 (hybridoma ATCC HB-12101) (antibody, mouse IgG3, V domains shown)
VH: QVQLKESGPGLVASSQSLSITCTVSGFSLTAYGINWVRQPPGKGLEWLGVIWPDGNTDYNSTLKSRLNIFKDNSKNQVFLKMSSFQTDDTARYFCARDSYGNFKRGWFDFWGQGTTLTVSS
VL: NIVMTQSQKFMSTSPGDRVRVTCKASQNVGSDVAWYQAKPGQSPRILIYSTSYRYSGVPDRFTAYGSGTDFTLTITNVQSEDLTEYFCQQYNSYPLTFGAGTKLELK
notes: also called murine E99
Take B7: the binding result in assay [3] was “binds”.
